From the nanobody polyreactivity screen of Harvey et al. (2022)

Experiment: yeast display, Sf9 membrane polyspecificity reagent, FACS + sequencing; frameworks hold sequencing errors
Outline: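 Synthetic nanobody libraries on Saccharomyces cerevisiae BJ5465 were galactose-induced for 36–48 hours, stained 1 hour at 4 °C with 10% biotinylated, detergent-solubilized Sf9 membrane reagent and enriched on streptavidin microbeads. FACS then separated cells into low and high (top ~1%) gates by anti-HA (expression) and streptavidin (reagent binding) fluorescence. Genes were colony-PCR amplified, MiSeq 2 × 250 sequenced and CDR-length filtered. A clone's polyreactivity label is that of its gate of origin.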

QVQLVESGGGLVQAGGSLSLSCAASGRSFRIYPMGWYRPAPGKERELVATITWRAGSTYYADSVKGRFTISRDNAKNTVYLLMNSLTPEDTAVYYFAAGRQYGGYRYDYWGQGTQVTVSS
polyreactivity (PSR sort gate): high polyreactivity

QVQLVESGGGLVQAGGSLSLSCAASGRTFGYYTMGWYRQAPGKERELVAAINWGGSRTYYADSVKGRFTISRDNAKNTVYLEMNSLKPEDTAVYYCAADVYRQWADDSWGLGTQVTVSS
polyreactivity (PSR sort gate): high polyreactivity

QVQLVESGGGLVQAGGSLSLSCAASGRTFVRYAMGWYRQAPGKERELVAAISRNAGRTYYADSVKGRFTISRDNAKNTVYLQMNSLKPEDTAVYYCAAPGRNLGTGFYYWGQGTQVTVSS
polyreactivity (PSR sort gate): high polyreactivity

QVQLVESGGGLVQAGGSLSLSCAASGRTFYANAMGWNRQAPGKERELVATITRGGSTNYADSVKGRFTISRDNAKNTVYLQMNSLKPEDTAVYYCAARSYTSSHRHYYWGQGTQVTVSS
polyreactivity (PSR sort gate): low polyreactivity

QVQLVESGGGLVQAGGSLSLSCAASGSIFDYNAMGWYRQAPGKEREVVAAIDGGSTYYADSVKGRFTISRDNAKNNVYLQMNSLKPEDTAVDYCAAEGFQADTYYWPMESWGQGTQVTVSS
polyreactivity (PSR sort gate): low polyreactivity

QVQLVESGGGLVQAGGSLSLSCAASGSIFFVNAMGWYRQAPGKERELVAAISRSGGRTYYADSVKGRFTISRDNAKNTVYFQMNSLKPEDTAVYYCAAEYNPGSYFTYDYWGQGTQVTVSS
polyreactivity (PSR sort gate): low polyreactivity

QVQLVESGGGLVQAGGSLSLSCAASGSIFLYNAMGWYRPAPGKERELVAAISKSGGSTYYADSVKGRFTISRDNAKNTVYLQMNSLKPEDTAFYYCAAGYGRRIRYGSEYDYWGQGTQVTVSS
polyreactivity (PSR sort gate): low polyreactivity

QVQLVESGGGLVQAGGSLSLSCAASGSIFWRNAMGWYRPAPGKERELVAAITSGGSTYYADSVKGRFTISRDNAKNTVYLQMNSLKPEDTAVYYCAAGYSYRYDYWGQGTQVTVSS
polyreactivity (PSR sort gate): low polyreactivity

QVQLVESGGGLVQAGGSLSLSCAASGSIFWYYAMGWYRPAPGKERELVATIDVSAGSTYADSVKGRFTIARDNAKNTVYLQMNSLKPEDTAVYDCNADHYPGEVFYVSSTRYEREYWGQGTQVTVSS
polyreactivity (PSR sort gate): low polyreactivity

QVQLVESGGGLVQAGGSLSLSCAASGSISDVYAMGGYRQAPGKERELVAAITSGASTYYADSVKGRFTISRDNAKNTVYLQMNSLKPEDTAVYYCAAGYSDWYYAAYNSWGQGTQVTVST
polyreactivity (PSR sort gate): low polyreactivity

QVQLVESGGGLVQAGGSLSLSCAASGSISDVYPMGGYRQAPRKERELVAAITSGASTYYADSVKGRFTISRDNAKNTVYLQLNSLKTEDTAVYYCAAGYSDWYYADYNSWGQGTQVTVSS
polyreactivity (PSR sort gate): low polyreactivity

QVQLVESGGGLVQAGGSLSLSCAASGSNFVKNAMGWYRPAPGKERELVATISTGGSTYYADSVKGRFTISRDNAKNTVYLQMNSLKPEDTAVYYCATDFYPRFLLRSYRPYYYWGQGTQVTLSS
polyreactivity (PSR sort gate): low polyreactivity

QVQLVESGGGLVQAGGSLSLSCAASGSTFAFYAMGCYRQAPGKERDLVAASTRSAGSTYYADSVKGRFTISRDNATTTVYLPMNSLKREDTAVYYCAKYVSYSRTLYDYWGQGTQVTVSS
polyreactivity (PSR sort gate): low polyreactivity

QVQLVESGGGLVQAGGSLSLSCAASGSTFARYAMGWYRQAPGKERELVAAISITGSTYYADSVKGRFTISRDNAKNTVYLQMKSLKPEDTAVYYCNVKSKYRYGYWGQGTQVTVSS
polyreactivity (PSR sort gate): high polyreactivity

QVQLVESGGGLVQAGGSLSLSCAASGSTFAYYAMGWYREAPGQERELVAGITWTGGSTYYADSVKGRFTISRDNAKNSVYLQMNSLKPEDTAVYYCAADRYFYEGDYWGQVTQVTVSS
polyreactivity (PSR sort gate): low polyreactivity

QVQLVESGGGLVQAGGSLSLSCAASGSTFYSNAMGWYRQAPGKERELVAAISIGGSTYYADSVKGRFTISRDNAKNTVYLQMNSLKPEDTAVYYCAVDYRHSSSWNAGRWEMYYWGQGTQVTVSS
polyreactivity (PSR sort gate): low polyreactivity

QVQLVESGGGLVQAGGSLSLSCAASGYIFGPYDMGWYRQAPGKERELVAVIDWSGGSTYYADSVKGRFTISRDNAKNTFYLQMNSLKPEDTAVYYCAADISWGVSQFDYWGQGTQVTVSS
polyreactivity (PSR sort gate): low polyreactivity

QVQLVESGGGLVQAGGSLSLSCAASGYTFSYYAMGWYRQAPGKERELVARITYSGGSTYYADSVKGRFTISRDNAKNTGYLQIKSLKPEDTAVYYCAARLRYPYWYYYWGQGTQVTVSS
polyreactivity (PSR sort gate): high polyreactivity

QVQLVESGGGLVQAGGSLSLSCGASGRIFSLYAMGWYRQAPGKERELVAAMSWGAGSTYYADSVKGRFTISRDNAKNTVYLQMNSLKREATAVYYCATGRRYYYPYASYLKYGYWGQGTQVTVSS
polyreactivity (PSR sort gate): high polyreactivity

QVQLVESGGGLVQAGGSLSLSSAASGFIFHTYAMRWYRQAPGKERELVASITWRGGRTYYADSVKGRFTISRDNAKNTVYLQLNSLNPVYTAVYYCAAVTFSYDGYDYWGQGTQVTVSS
polyreactivity (PSR sort gate): low polyreactivity

QVQLVESGGGLVQAGGSLSLSSAASGPIFAYNAMGWYRQAPGKERELVAAISYSGGSTYYADSLKGRFTISRDNAKNTVYIQMNSLKPEDTAVYYCNAVYRYLTYRYDYWGQGTQVTVSS
polyreactivity (PSR sort gate): high polyreactivity

QVQLVESGGGLVQAGGSLSVSCAASGFTFDRYAMGWYRQAPGKERELVAAISGSGDSTFYADSVKGRFTISRDNAKNTVYLQMNSLKPVDTAVYYCNAKRSFRWTYGYWGQGSQVTVSS
polyreactivity (PSR sort gate): high polyreactivity
